Our source for the co-localization frequency values is article PMC8643664.

The chains are these.
B1: FLAG-ORC1 (244–511) (domain or fragment)
chain: NPQMSQQTSCASLDSPGRIKRKVAFSEITSPSKRSQPDKLQTLSPALKAPEKTRETGLSYTEDDKKASPEHRIILRTRIAASKTIDIREERTLTPISGGQRSSVVPSVILKPENIKKRDAKEAKAQNEATSTPHRIRRKSSVLTMNRIRQQLRFLGNSKSDQEEKEILPAAEISDSSSDEEEASTPPLPRRAPRTVSRNLRSSLKSSLHTLTKVPKKSLKPRTPRCAAPQIRSRSLAAQEPASVLEEARLRLHVSAVPESLPCREQEF
B2: FLAG-ORC1 (325–511) (domain or fragment)
chain: SKTIDIREERTLTPISGGQRSSVVPSVILKPENIKKRDAKEAKAQNEATSTPHRIRRKSSVLTMNRIRQQLRFLGNSKSDQEEKEILPAAEISDSSSDEEEASTPPLPRRAPRTVSRNLRSSLKSSLHTLTKVPKKSLKPRTPRCAAPQIRSRSLAAQEPASVLEEARLRLHVSAVPESLPCREQEF
B3: FLAG-ORC1 (full-length) (natural protein)
chain: MAHYPTRLKTRKTYSWVGRPLLDRKLHYQTYREMCVKTEGCSTEIHIQIGQFVLIEGDDDENPYVAKLLELFEDDSDPPPKKRARVQWFVRFCEVPACKRHLLGRKPGAQEIFWYDYPACDSNINAETIIGLVRVIPLAPKDVVPTNLKNEKTLFVKLSWNEKKFRPLSSELFAELNKPQESAAKCQKPVRAKSKSAESPSWTPAEHVAKRIESRHSASKSRQTPTHPLTPRARKRLELGNLGNPQMSQQTSCASLDSPGRIKRKVAFSEITSPSKRSQPDKLQTLSPALKAPEKTRETGLSYTEDDKKASPEHRIILRTRIAASKTIDIREERTLTPISGGQRSSVVPSVILKPENIKKRDAKEAKAQNEATSTPHRIRRKSSVLTMNRIRQQLRFLGNSKSDQEEKEILPAAEISDSSSDEEEASTPPLPRRAPRTVSRNLRSSLKSSLHTLTKVPKKSLKPRTPRCAAPQIRSRSLAAQEPASVLEEARLRLHVSAVPESLPCREQEFQDIYNFVESKLLDHTGGCMYISGVPGTGKTATVHEVIRCLQQAAQANDVPPFQYIEVNGMKLTEPHQVYVQILQKLTGQKATANHAAELLAKQFCTRGSPQETTVLLVDELDLLWTHKQDIMYNLFDWPTHKEARLVVLAIANTMDLPERIMMNRVSSRLGLTRMCFQPYTYSQLQQILRSRLKHLKAFEDDAIQLVARKVAALSGDARRCLDICRRATEICEFSQQKPDSPGLVTIAHSMEAVDEMFSSSYITAIKNSSVLEQSFLRAILAEFRRSGLEEATFQQIYSQHVALCRMEGLPYPTMSETMAVCSHLGSCRLLLVEPSRNDLLLRVRLNVSQDDVLYALKDE
B4: FLAG-ORC1 (2–511) (domain or fragment)
chain: AHYPTRLKTRKTYSWVGRPLLDRKLHYQTYREMCVKTEGCSTEIHIQIGQFVLIEGDDDENPYVAKLLELFEDDSDPPPKKRARVQWFVRFCEVPACKRHLLGRKPGAQEIFWYDYPACDSNINAETIIGLVRVIPLAPKDVVPTNLKNEKTLFVKLSWNEKKFRPLSSELFAELNKPQESAAKCQKPVRAKSKSAESPSWTPAEHVAKRIESRHSASKSRQTPTHPLTPRARKRLELGNLGNPQMSQQTSCASLDSPGRIKRKVAFSEITSPSKRSQPDKLQTLSPALKAPEKTRETGLSYTEDDKKASPEHRIILRTRIAASKTIDIREERTLTPISGGQRSSVVPSVILKPENIKKRDAKEAKAQNEATSTPHRIRRKSSVLTMNRIRQQLRFLGNSKSDQEEKEILPAAEISDSSSDEEEASTPPLPRRAPRTVSRNLRSSLKSSLHTLTKVPKKSLKPRTPRCAAPQIRSRSLAAQEPASVLEEARLRLHVSAVPESLPCREQEF

The target in the assay is TRF2 (45–244)-LacI. Put plainly: lacO-LacI protein tethering assay.
For B1, the co-localization frequency was determined as 90%.
Then B2, with 46%; and B3, with 26%.
Turning to B4, the co-localization frequency is 73%.
